Assay results published in patent US20180127500A1 (ANAPTYSBIO, published 2018).

T1: Human TIM-3 (human, UniProt Q8TDQ0 22-200, limits assumed)
T1 construct: The construct used for BIACORE is not described; also called T Cell Immunoglobulin and Mucin Protein 3; HAVCR2
T1 sequence (looked up): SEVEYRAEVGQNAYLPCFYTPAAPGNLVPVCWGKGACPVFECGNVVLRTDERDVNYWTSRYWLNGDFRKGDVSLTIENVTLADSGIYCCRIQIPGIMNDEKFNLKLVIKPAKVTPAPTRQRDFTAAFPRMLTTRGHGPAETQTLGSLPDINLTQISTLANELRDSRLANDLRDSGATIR

T2: Cyno TIM-3 (cynomolgus monkey, UniProt A0A2K5U3G7 22-294)
T2 construct: The construct used for BIACORE is not described; also called cynomolgus monkey TIM-3
T2 sequence: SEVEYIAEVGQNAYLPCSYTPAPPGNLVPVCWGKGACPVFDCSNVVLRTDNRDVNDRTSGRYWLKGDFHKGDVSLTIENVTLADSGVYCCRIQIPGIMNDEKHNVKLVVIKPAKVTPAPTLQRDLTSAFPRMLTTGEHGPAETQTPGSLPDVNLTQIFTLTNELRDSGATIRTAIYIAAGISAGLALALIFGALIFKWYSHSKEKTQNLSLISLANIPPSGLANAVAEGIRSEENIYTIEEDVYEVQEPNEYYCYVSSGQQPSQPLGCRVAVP


What was measured:
[1] = target: T1, Human TIM-3; assay: BIACORE (SPR)
[2] = target: T2, Cyno TIM-3; assay: BIACORE (SPR)

Kd [1] [nM]	Kd [2] [nM]	Binder
0.05	0.19	APE5137 (antibody, V domains shown, also called Lead Antibody; lead anti-TIM-3 antibody) VH: EVQLLESGGGLVQPGGSLRLSCAAASGFTFSSYDMSWVRQAPGKGLDWVSTISGGGTYTYYQDSVKGRFTISRDNSKNTLYLQMNSLRAEDTAVYYCASMDYWGQGTTVTVSS VL: DIQMTQSPSSLSASVGDRVTITCRASQSIRRYLNWYHQKPGKAPKLLIYGASTLQSGVPSRFSGSGSGTDFTLTISSLQPEDFAVYYCQQSHSAPLTFGGGTKVEIKR
< 0.05	1.5	APE5121 (antibody, V domains shown, also called Back-Up Antibody) VH: EVQVLESGGGLVQPGGSLRLYCVASGFTFSGSYAMSWVRQAPGKGLEWVSAISGSGGSTYYADSVKGRFTISRDNSKNTLYLQMNSLRAEDTAVYYCAKKYYVGPADYWGQGTLVTVSS VL: not shown
